US20240325555A1 (LANOVA MEDICINES, published 2024)
Changes are numbered by the printed parent chain. Like-named read-outs stand apart in the source and are kept apart here.

Assays:
cynomolgus LIV-1 [1] = target: T1, cynomolgus LIV-1 (cynomolgus, UniProt A0A2K5WH46 30-741); assay: FACS, HEK293/Cyno_LIV-1 cells
Experimental: (§1) In this example, cell based binding of chimeric Abs on human and cyno LIV-1 over-expressing HEK 293 cells were assessed using flow cytometry.
(§2) Briefly, cells were incubated with chimeric Abs (from 100 nM, 5 folds dilution, 8 points). After incubation at 4° C. for 60 minutes, the cells were washed with 2% FBS/PBS buffer twice, then stained with fluorescent conjugated secondary antibody at 4° C. for 30 minutes. After that the cells were washed twice and resuspended in 80 μL of 2% FBS/PBS buffer. Fluorescent signal of binding was detected using Agilent. The EC50 was calculated using the GraphPad Software (LaJolla, CA).

human LIV-1 [2] = target: T2, human LIV-1 (human, UniProt Q13433 29-755); assay: FACS, HEK293/H_LIV-1 cells
T2 construct: whole, on cells; also called H-LIV1
T2 sequence (looked up): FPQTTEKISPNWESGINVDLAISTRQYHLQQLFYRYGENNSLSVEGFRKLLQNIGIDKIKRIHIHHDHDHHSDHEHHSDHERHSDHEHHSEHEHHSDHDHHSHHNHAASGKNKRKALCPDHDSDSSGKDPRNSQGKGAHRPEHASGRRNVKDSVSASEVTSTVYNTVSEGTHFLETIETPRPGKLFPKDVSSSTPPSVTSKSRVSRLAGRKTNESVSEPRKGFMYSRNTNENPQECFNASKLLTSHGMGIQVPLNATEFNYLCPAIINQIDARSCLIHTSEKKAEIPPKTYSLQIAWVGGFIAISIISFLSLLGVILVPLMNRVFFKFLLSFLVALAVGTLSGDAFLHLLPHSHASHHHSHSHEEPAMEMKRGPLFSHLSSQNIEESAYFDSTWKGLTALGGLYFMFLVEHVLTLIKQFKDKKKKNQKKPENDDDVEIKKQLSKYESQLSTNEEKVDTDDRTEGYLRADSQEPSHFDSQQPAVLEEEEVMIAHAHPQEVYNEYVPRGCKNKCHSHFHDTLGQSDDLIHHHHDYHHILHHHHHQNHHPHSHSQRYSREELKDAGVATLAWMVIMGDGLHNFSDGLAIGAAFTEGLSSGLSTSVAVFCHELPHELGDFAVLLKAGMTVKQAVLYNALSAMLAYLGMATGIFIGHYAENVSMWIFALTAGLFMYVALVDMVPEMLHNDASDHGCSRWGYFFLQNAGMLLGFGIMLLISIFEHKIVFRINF
Experimental: as §1, §2

cynomolgus LIV-1 [3] = target: T1, cynomolgus LIV-1; assay: FACS, HEK293/Cyno_LIV-1 cells; remark: listed apart in the source
Target sequence in this assay (A0A2K5WH46 entry or part of it): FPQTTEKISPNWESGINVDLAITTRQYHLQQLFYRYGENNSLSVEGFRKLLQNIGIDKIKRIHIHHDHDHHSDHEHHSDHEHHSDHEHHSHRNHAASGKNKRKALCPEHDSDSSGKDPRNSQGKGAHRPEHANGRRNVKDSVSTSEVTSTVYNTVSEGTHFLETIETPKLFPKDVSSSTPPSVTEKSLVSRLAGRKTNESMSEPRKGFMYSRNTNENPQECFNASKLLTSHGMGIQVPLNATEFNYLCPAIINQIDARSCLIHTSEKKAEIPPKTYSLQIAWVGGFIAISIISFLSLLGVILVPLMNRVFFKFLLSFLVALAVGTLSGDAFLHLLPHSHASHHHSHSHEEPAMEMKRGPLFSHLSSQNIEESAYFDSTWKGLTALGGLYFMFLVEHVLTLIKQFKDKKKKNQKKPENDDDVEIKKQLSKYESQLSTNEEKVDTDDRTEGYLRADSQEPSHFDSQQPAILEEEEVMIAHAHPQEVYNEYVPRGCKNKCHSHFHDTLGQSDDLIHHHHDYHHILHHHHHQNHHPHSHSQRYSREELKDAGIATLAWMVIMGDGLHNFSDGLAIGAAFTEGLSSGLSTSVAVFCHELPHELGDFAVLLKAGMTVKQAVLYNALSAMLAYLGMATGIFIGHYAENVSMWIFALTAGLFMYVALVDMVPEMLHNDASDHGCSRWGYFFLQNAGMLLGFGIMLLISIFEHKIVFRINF

human LIV-1 [4] = target: T2, human LIV-1; assay: FACS, HEK293/H_LIV-1 cells; remark: listed apart in the source
Experimental: In this example, cell based binding of humanized antibodies (hu Abs) on human LIV-1-expressing cells were assessed using flow cytometry.
Cell based binding of hu-Abs on human LIV-1 expressing cells were assessed using flow cytometry. Briefly, the HEK293/H_LIV-1 cells were incubated with hu-Abs (from 100 nM, 6 folds dilution, 8 points). After incubation at 4° C. for 60 minutes, the cells were washed with FACS buffer twice, then stained with fluorescent conjugated secondary antibody at 4° C. for 30 minutes. After that the cells were washed twice and analyzed by flow cytometry.

B1: 79F5G5 (antibody, V domains shown)
VH: EVQLQQSGAELVRSGASVKLSCTASGFNIKDYYMHWVKQRPEQGLEWIGWIDPENGDTEYAPKFQGKATLTADTSSNTAYLQLSSLTFEDTAVYYCPHGGGLRVFDYWGQGTSLTVSS
VL: DVLMTQIPLSLSVSLGDQASISCRSSQSIVHSNGNTYLEWYLQKPGQSPKLLIYKVSNRFSGVPDRFSGSGSGTDFTLKISRVEAEDLGVYYCFQGSHVPWTFGGGTKLEIK
notes: Tested as chimeric antibody
Cynomolgus LIV-1 [1]
  EC50: 1.85 nM
  Top (MFI): 7020 MFI
Human LIV-1 [2]
  EC50: 9.45 nM
  Top (MFI): 17500 MFI

B2: 124H4D11.p2.z5 (antibody, V domains shown)
VH: QVQLVQSGAEVVKPGASVKVSCKASGFNIKDYYMHWVRQAPGQGLEWIGWIDPENDDTEYDPKFQGRVTMTADTSTSTVYMELSSLRSEDTAVYYCAARYYAFDYWGQGTMVTVSS
VL: B1 VL with I7S, S12P, S14T, D17Q, Q18P, G34A, K44R, D75E, H98Q, W101P
Cynomolgus LIV-1 [3]
  EC50: 0.25 nM
  Top (MFI): 8070 MFI
Human LIV-1 [4]
  EC50: 0.58 nM
  Top (MFI): 15600 MFI

B3: 124H4D11.p2.z14 (antibody, V domains shown)
VH: B2 VH with Q3P, V20L, R38K, V68A, V79A, M81L, A97N, M111T
VL: DVLMTQSPLSLPVTLGQPASISCRSSQSIVHSNANTYLEWYLQRPGQSPRLLIYKVSNRFSGVPDRFSGSGSGTDFTLKISRVEAEDVGVYYCFQGSQVPPTFGQGTKLEIK
Cynomolgus LIV-1 [3]
  EC50: 0.5 nM
  Top (MFI): 7670 MFI
Human LIV-1 [4]
  Top (MFI): 16800 MFI

B4: 124H4D11.p2.z15 (antibody, V domains shown)
VH: B2 VH with Q3P, V20L, R38K, V68A, V79A, M81L, A97N, M111T
VL: B3 VL with R50K, D75E, V88L, Q105G
Cynomolgus LIV-1 [3]
  EC50: 5.37 nM
  Top (MFI): 6910 MFI
Human LIV-1 [4]
  Top (MFI): 16800 MFI

B5: 5D6B10.Z5 (antibody, V domains shown)
VH: QVQLVESGGGVVQPGRSLRLSCTVSGFSLTTYGIHWVRQSPGKGLEWLGVIWTGGTTDYNAAFISRLTISKDNSKSTLYFQMNSLRAEDTAVYYCARGPSSYWGQGTLVTVSS
VL: EIVMTQSPATLSVSPGERATVSCKASQNVDTNVVWYQQKPGQSPRALIHSASYRYSGVPDRFSGSGSGTDFTLTISSLQSEDFAVYFCQQYNNYPWTFGQGTKVEIK
Cynomolgus LIV-1 [3]
  EC50: 1.72 nM
  Top (MFI): 12400 MFI
Human LIV-1 [4]
  EC50: 0.17 nM
  Top (MFI): 43400 MFI

B6: 5D6B10.Z1 (antibody, V domains shown)
VH: B5 VH with T23A, S40A, G49A, L67F, F80L
VL: B5 VL with V21L, H49Y, D60A, D70E
Cynomolgus LIV-1 [3]
  EC50: 0.13 nM
  Top (MFI): 19600 MFI
Human LIV-1 [4]
  EC50: 0.16 nM
  Top (MFI): 49800 MFI

B7: 5D6B10.Z2 (antibody, V domains shown)
VH: B5 VH with T23A, S40A, G49A, L67F, F80L
VL: B5 VL
Cynomolgus LIV-1 [3]
  EC50: 4.56 nM
  Top (MFI): 14900 MFI
Human LIV-1 [4]
  EC50: 0.18 nM
  Top (MFI): 46700 MFI

B8: 5D6B10.Z3 (antibody, V domains shown)
VH: B5 VH with T23A, S40A, G49A, L67F, F80L
VL: B5 VL with E1D, A19V, L78V, Q100G, V104L
Cynomolgus LIV-1 [3]
  EC50: 0.23 nM
  Top (MFI): 17200 MFI
Human LIV-1 [4]
  EC50: 0.33 nM
  Top (MFI): 51200 MFI

B9: 5D6B10.Z4 (antibody, V domains shown)
VH: B5 VH
VL: B5 VL with V21L, H49Y, D60A, D70E
Cynomolgus LIV-1 [3]
  EC50: 0.2 nM
  Top (MFI): 19800 MFI
Human LIV-1 [4]
  EC50: 0.28 nM
  Top (MFI): 53000 MFI

B10: 5D6B10.Z6 (antibody, V domains shown)
VH: B5 VH
VL: B5 VL with E1D, A19V, L78V, Q100G, V104L
Cynomolgus LIV-1 [3]
  EC50: 0.16 nM
  Top (MFI): 16700 MFI
Human LIV-1 [4]
  EC50: 0.24 nM
  Top (MFI): 52700 MFI

B11: 5D6B10.Z8 (antibody, V domains shown)
VH: B5 VH with E6Q, L78V, R86Q, V92I
VL: B5 VL
Cynomolgus LIV-1 [3]
  EC50: 4 nM
  Top (MFI): 12100 MFI
Human LIV-1 [4]
  EC50: 0.19 nM
  Top (MFI): 45700 MFI

B12: 5D6B10.Z9 (antibody, V domains shown)
VH: B5 VH with E6Q, L78V, R86Q, V92I
VL: B5 VL with E1D, A19V, L78V, Q100G, V104L
Cynomolgus LIV-1 [3]
  EC50: 0.23 nM
  Top (MFI): 16500 MFI
Human LIV-1 [4]
  EC50: 0.24 nM
  Top (MFI): 52600 MFI

B13: 90H4F8 (antibody, V domains shown)
VH: QVQLQQSGPELVKPGASVRISCKASGYTFTSYHMHWVKQRPGQGLEWIGWIYPGNVKNQSNEKFKGKATLTADKSSSTAYMHLSSLTSEDSAVYFCARSDITRAFFAYWGQGTLVTVSA
VL: B1 VL with I7T, S12P, V99G, W101Y
notes: Tested as chimeric antibody
Cynomolgus LIV-1 [1]
  EC50: 0.43 nM
  Top (MFI): 6880 MFI
Human LIV-1 [2]
  EC50: 1.08 nM
  Top (MFI): 12200 MFI

B14: 5D6B10.Z10 (antibody, V domains shown)
VH: QVQLQESGPGLVKPSGTLSLTCAVSGFSLTTYGIHWVRQSPGKGLEWLGVIWTGGTTDYNAAFISRLTISKDKSKNQVSLKLSSVTAADTAVYYCARGPSSYWGQGTLVTVSS
VL: B5 VL with V21L, H49Y, D60A, D70E
Cynomolgus LIV-1 [3]
  EC50: 0.47 nM
  Top (MFI): 25800 MFI
Human LIV-1 [4]
  EC50: 0.42 nM
  Top (MFI): 63800 MFI

B15: 5D6B10.Z11 (antibody, V domains shown)
VH: B14 VH
VL: B5 VL
Cynomolgus LIV-1 [3]
  EC50: 11.6 nM
  Top (MFI): 18300 MFI
Human LIV-1 [4]
  EC50: 0.29 nM
  Top (MFI): 55300 MFI

B16: 5D6B10.Z12 (antibody, V domains shown)
VH: B14 VH
VL: B5 VL with E1D, A19V, L78V, Q100G, V104L
Cynomolgus LIV-1 [3]
  EC50: 0.46 nM
  Top (MFI): 24900 MFI
Human LIV-1 [4]
  EC50: 0.3 nM
  Top (MFI): 60300 MFI

B17: 5D6B10.Z13 (antibody, V domains shown)
VH: B14 VH with E6Q, A23T, S79F, L80F, L82M, V85L
VL: B5 VL with V21L, H49Y, D60A, D70E
Cynomolgus LIV-1 [3]
  EC50: 0.5 nM
  Top (MFI): 26300 MFI
Human LIV-1 [4]
  EC50: 0.33 nM
  Top (MFI): 64300 MFI

B18: 124H4D11.p2.z2 (antibody, V domains shown)
VH: B2 VH
VL: DVLMTQSPSSLSASVGDRVTITCRSSQSIVHSNANTYLEWYLQKPGKSPKLLIYKVSNRFSGVPDRFSGSGSGTEFTLTISSVQPEDFAVYYCFQGSQVPPTFGQGTRLEIK
Cynomolgus LIV-1 [3]
  EC50: 0.2 nM
  Top (MFI): 8390 MFI
Human LIV-1 [4]
  Top (MFI): 19400 MFI

B19: 82C7C7 (antibody, V domains shown)
VH: EVQLQQSGAELVKPGASIKLSCTPSGFNIKDTFIHWVKQRPEQGLEWIGRIDPANGNTRYDPKFQGKATITADTSSNTAYLQLISLTSEDTAVYYCAGGSISTVVPDYWGQGTTLTVSS
VL: DVVVTQTPLSLPVSLGDQASISCRSSQSLVHNNGNTYLHWYLQKPGQSPKLLIYKVSNRFSGVPDRFSGSGSGTDFTLKISRVEAEDLGVYFCSQSTHVPYTFGGGTKLEIK
notes: Tested as chimeric antibody
Cynomolgus LIV-1 [1]
  EC50: 0.5 nM
  Top (MFI): 7130 MFI
Human LIV-1 [2]
  EC50: 0.61 nM
  Top (MFI): 12300 MFI

B20: 92E4E10 (antibody, V domains shown)
VH: EVQLQQSGTVLARPGASVKISCKASGYRFTSYWMHWVKQRPGQGLEWIGAIYPGNSDTTYNQKFKGKAKLTAVTSASTAYMDLSSLTNEDSAVYYCTSLLLRSPFDYWGQGTTLTVSS
VL: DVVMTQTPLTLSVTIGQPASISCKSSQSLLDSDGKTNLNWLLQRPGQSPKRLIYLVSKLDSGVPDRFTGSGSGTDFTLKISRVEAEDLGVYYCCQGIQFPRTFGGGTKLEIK
notes: Tested as chimeric antibody
Cynomolgus LIV-1 [1]
  EC50: 0.15 nM
  Top (MFI): 41300 MFI
Human LIV-1 [2]
  EC50: 0.34 nM
  Top (MFI): 66200 MFI

B21: 94C4B9 (antibody, V domains shown)
VH: EVQLQQSGTVLARPGASVKMSCKASGYTFINYWMHWVKQRPGQGLEWIGAFYPGNSDTSYNQKFKDKAKLTAVTSTSTAYMEFSSLTNEDSAVYYCTRDFTAVPYFDYWGQGTTLTVSS
VL: B1 VL with V2I, I7T, S12P, H98Y, W101L, G105V, I111L
notes: Tested as chimeric antibody
Cynomolgus LIV-1 [1]
  EC50: 0.15 nM
  Top (MFI): 7860 MFI
Human LIV-1 [2]
  EC50: 0.22 nM
  Top (MFI): 11600 MFI

B22: 99B3E8 (antibody, V domains shown)
VH: B21 VH with A16T, K38R, K63N, Y105F
VL: B1 VL with I7T, S12P, H98Y, W101L, G105V, I111L
notes: Tested as chimeric antibody
Cynomolgus LIV-1 [1]
  EC50: 0.34 nM
  Top (MFI): 8240 MFI
Human LIV-1 [2]
  EC50: 1.04 nM
  Top (MFI): 12600 MFI
